{"source": "patent US8491890", "target": "Fas (CD95, APO-1) on mouse microglia (mouse) (UniProt P25446)", "sequence (P25446 22-327)": "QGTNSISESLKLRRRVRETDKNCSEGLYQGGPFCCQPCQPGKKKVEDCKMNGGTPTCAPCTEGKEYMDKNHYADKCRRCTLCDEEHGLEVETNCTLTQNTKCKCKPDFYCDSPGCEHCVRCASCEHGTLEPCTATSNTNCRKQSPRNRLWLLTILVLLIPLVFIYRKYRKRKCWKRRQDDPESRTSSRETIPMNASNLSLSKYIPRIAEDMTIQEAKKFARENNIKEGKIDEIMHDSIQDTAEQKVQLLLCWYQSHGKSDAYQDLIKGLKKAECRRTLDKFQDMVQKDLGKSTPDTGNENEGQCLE", "assay": "cell-based or functional assay"}
{"substance": "Fas ligand (FasL) on mouse Treg and Teff (from UniProt P41047 1-279)", "values": [{"measurement": "decrease of CB expression in Teff-treated cultures on blocking of FasL interactions (flow cytometry)", "result": 4.8, "unit": "%"}, {"measurement": "decrease of CB protein expression in Treg-treated microglia on neutralization of FasL (flow cytometry)", "result": 40.2, "unit": "%"}]}
